Test results as given in PMC5131902, “Pheromone Recognition and Selectivity by ComR Proteins among Streptococcus Species” (PLoS Pathogens, 2016).
Read-outs that look alike come from different tables or passages of the source. Ends that are not written are not given here.

Experiments:
[1] = test system: S. agalactiae 2603 v/r ComR; experiment: S. mutans ES1 test-bed PcomS::luxAB luciferase reporter assay; type: cell-based; settings: synthetic peptides titrated to ES1 reporter strain carrying ComR S. agalactiae 2603
Source text: (§1) The entire known SigX regulon, as well as the proximal transcriptional regulator of sigX, ComR, is conserved throughout the Mutans, Bovis, and Pyogenic groups (Fig 1, top). Additionally, within these groups, the mature form of the peptide pheromone ComS contains a conserved double-tryptophan motif (‘WW’) (Fig 1, bottom). This led us to ask whether the putative ComRs encoded by members of these groups could respond to cognate and heterologous XIPs to activate comS and sigX transcription. To test this possibility, we developed a strain that would allow for control of the ComR and XIP variants present within the system. […] Additionally, when a multi-copy plasmid carrying wild-type comR was provided to a ΔcomR strain, the ability to naturally transform exogenous genomic DNA was rescued. With these observations in mind, we created an S. mutans UA159 ‘test bed’ strain, ES1, in which the endogenous comRS locus was replaced with a spectinomycin-resistance cassette (Fig 2A). Because this strain contains neither comS nor comR, it is unable to produce or respond to XIP pheromones. A plasmid was used as a vehicle to provide different comR variants, under control of the native promoter, with adjoining comR-comS intergenic regions containing ComR binding sites and the comS promoter. The plasmid also contains the bacterial luciferase genes, luxAB, under transcriptional control of the cloned comS promoter. Clones harboring each comR-variant plasmid were constructed, grown, and treated with titrations of synthetic XIP peptides. Since productive interaction between ComR and XIP results in transcriptional activation of the comS promoter, we could test the functionality of ComR–XIP interactions by assessing the specific bioluminescent activity of each culture. To ensure that the test bed recapitulated observed results seen in wild-type S. mutans UA159, we assessed the UA159 ComR with serial dilutions of the cognate XIP-C7 (the C-terminal seven amino acids of ComS) and measured bioluminescence levels (Fig 2B).
(§2) Predicted XIP peptide sequences were determined by identifying open reading frames downstream from the putative ComR gene by using NCBI BLAST to identify UA159 ComR homologues. One to three different lengths of peptide from each species were ordered from NeoScientific (Woburn, MA). Peptide crude extracts (purity 45–75%) were dissolved in DMSO (Fisher Scientific, Hampton, NH) at a concentration of 1 mM based upon the specific purity and stored at -20° C.
(§3) Starter cultures, from cultures stored in 20% glycerol at -80° C, of each ComR reporter strain were diluted to an OD600 of 0.05 in CDM + erm and incubated at 37° C until an OD^600 of ~0.1. 190 uL aliquots of reporter strain cell culture were added to wells within a 96-well (Greiner Bio-One; Monroe, NC) lidded, clear, flat-bottom plate, each containing 10 μL of DMSO or a 5x-serial dilution of the peptide of interest in DMSO (final concentration of 5% DMSO/well). Concentrations tested for each peptide were 1.3 nM, 6.4 nM, 38.6 nM, 231.5 nM, 1388.9 nM, […], and 50 μM. […] Prepared plates were lidded and sealed with Parafilm (Bemis, Oshkosh, WI) before incubation at 37° C, with continuous shaking, in a Synergy 2 plate reader (Biotek). OD600 and luminescence readings were measured every 15 min. over a 4-hr period. The maximum RLU measurement per well, between 60–240 minutes was recorded using Gen5 data analysis software. […]

S. mutans UA159 ComR = S. mutans UA159 ComR (Streptococcus mutans serotype c, UniProt Q8DWI6); experiment: as above; type: cell-based
Source text: as §1, §2, §3

S. suis S10 (serotype 2) = settings: cited from earlier work
Source text: One observed difference from published ComR/XIP behavior was for the two S. pyogenes strains used in our study, MGAS5005 (serotype M1) and MGAS315 (serotype M3).

[2] = target: ComR S. bovis 83 (Streptococcus bovis Sbo 83)
[3] = target: ComR S. bovis SboB (Streptococcus bovis SboB)
[4] = target: ComR S. dysgalactiae subsp. equisimilis ATCC35666 (Streptococcus dysgalactiae subsp. equisimilis ATCC35666)
[5] = target: ComR S. pyogenes MGAS5005 (Streptococcus pyogenes MGAS5005)
[6] = target: ComR S. suis 05ZYH33 (residues 1–304), wild-type (Streptococcus suis 05ZYH33)
[7] = target: ComR S. suis 05ZYH33 (residues 1–304), wild-type (Streptococcus suis 05ZYH33); experiment: ITC; 300 μM XIP injected into 20 μM ComR; VP-ITC, 25°C; 20 mM Tris pH 7.5, 100 mM NaCl, 1 mM β-ME; one-site model
[8] = target: ComR S. suis N220A (Streptococcus suis 05ZYH33); experiment: as above
[9] = target: ComR S. mutans UA159 (Streptococcus mutans UA159)
[10] = target: ComR S. mutans UA159 (Streptococcus mutans UA159); remark: listed apart in the source

## ETEWWNVG [EBS3, designed XIP of eight residues for ComR S. agalactiae 2603, ETEWWNVG]
[1]
  reporter induction of ComR S. agalactiae 2603 (maximum relative luciferase activity), in words: did not elicit strong reporter activity

## GLDWWSL [UA159 C7]
S. mutans UA159 ComR
  EC50: 0.17 nM

## GNWGTWVEE [XIP-C9]
S. suis S10 (serotype 2)
  transformability upon addition of XIP length variant: highest transformability

## LDWWSLG [EBS1, designed XIP agonist of ComR S. agalactiae 2603, LDWWSLG]
[1]
  reporter induction of ComR S. agalactiae 2603 (maximum relative luciferase activity), in words: robust reporter induction

## S. bovis 83 XIP-C7 (peptide)
[2]
  EC50 of P comS::luxAB luciferase activity in the S. mutans ES1 test bed: < 1 nM

## S. bovis SboB XIP-C7 (peptide)
[3]
  EC50 of P comS::luxAB luciferase activity in the S. mutans ES1 test bed: < 1 nM

## S. dysgalactiae subsp. equisimilis ATCC35666 XIP-C7 (peptide)
[4]
  EC50 of P comS::luxAB luciferase activity in the S. mutans ES1 test bed: 15000 nM
  increase in reporter activity at 50 μM XIP: 10 fold

## S. pyogenes MGAS315 XIP-C8 (peptide)
[5]
  P comS::luxAB transcription at 50 μM XIP, relative to the maximum with the cognate XIP: 25%

## S. pyogenes MGAS5005 XIP-C8 (peptide)
[5]
  EC50 of P comS::luxAB transcription in the S. mutans ES1 test bed: 250 nM
  increase of P comS::luxAB transcription at 50 μM XIP: 25 fold

## S. suis 05ZYH33 XIP-C7 (peptide)
[6]
  EC50 of P comS::luxAB luciferase activity in the S. mutans ES1 test bed: 93 nM
[7]
  Kd: 862 nM
  dH: -13.6 kcal/mol
  stoichiometry N: 0.96
[8]
  Kd: 13700 nM
  dH: -7.28 kcal/mol
  stoichiometry N: 1.09

## TGWWMLG [EBS2, designed XIP agonist of ComR S. agalactiae 2603, TGWWMLG]
[1]
  reporter induction of ComR S. agalactiae 2603 (maximum relative luciferase activity), in words: robust reporter induction

## TMGWWGL [NEM316 XIP, putative Type-II XIP of S. agalactiae strain NEM316, TMGWWGL]
[1]
  reporter induction of ComR S. agalactiae 2603 (maximum relative luciferase activity), in words: unable to activate

B1: S. mutans UA159 XIP-C7 (peptide)
peptide: GLDWWSL
[9]
  EC50 of P comS::luxAB luciferase activity in the S. mutans ES1 test bed: 0.2 nM
  maximal induction of luciferase activity in the test bed, at 2 nM XIP: 140 fold
[10]
  EC50 of P comS::luxAB luciferase activity in the S. mutans ES1 test bed: 88 nM
[7]
  Kd: 5880 nM
  dH: -6.01 kcal/mol
  stoichiometry N: 1.03
[8]
  Kd: 6060 nM
  dH: -4.26 kcal/mol
  stoichiometry N: 0.95
